{
  "source": "the MegaScale stability set (Tsuboyama et al. 2023)",
  "parents": {"B1": {"name": "EHEE_rd2_0196 (parent)", "chain": "TETRTFDSEEEAKKAQKEAEKQGRTVTITRRDDRWEVRFD"}},
  "data": [
    {"variants_of": "B1", "test": "folding stability dG (cDNA display proteolysis); higher = more stable", "settings": "PBS, room temperature", "units": {"folding stability dG": "kcal/mol"}, "values": [
      {"variant": "TETRTFDSEEEAKKAQKEAEKQGRTVTKTRRDDRWEVRFD", "note": "[I28K]", "folding stability dG": 0.714},
      {"variant": "TETRTFDSEEEAKKAQKEAEKQGRTVTSTRRDDRWEVRFD", "note": "[I28S]", "folding stability dG": 0.645},
      {"variant": "TETRTFDSEEEAKKAQKEAEKQGRTVTVTRRDDRWEVRFD", "note": "[I28V]", "folding stability dG": 2.83},
      {"variant": "TETRTFDSEEEAKKAQKEAEKQGRTVTGTRRDDRWEVRFD", "note": "[I28G]", "folding stability dG": 0.232},
      {"variant": "TETRTFDSEEEAKKAQKEAEKQGRTVTNTRRDDRWEVRFD", "note": "[I28N]", "folding stability dG": 0.423},
      {"variant": "TETRTFDSEEEAKKAQKEAEKQGRTVTPTRRDDRWEVRFD", "note": "[I28P]", "folding stability dG": 0.277},
      {"variant": "TETRTFDSEEEAKKAQKEAEKQGRTVTETRRDDRWEVRFD", "note": "[I28E]", "folding stability dG": 0.07},
      {"variant": "TETRTFDSEEEAKKAQKEAEKQGRTVTQTRRDDRWEVRFD", "note": "[I28Q]", "folding stability dG": 0.41},
      {"variant": "TETRTFDSEEEAKKAQKEAEKQGRTVTFTRRDDRWEVRFD", "note": "[I28F]", "folding stability dG": 0.342},
      {"variant": "TETRTFDSEEEAKKAQKEAEKQGRTVTHTRRDDRWEVRFD", "note": "[I28H]", "folding stability dG": -0.123},
      {"variant": "TETRTFDSEEEAKKAQKEAEKQGRTVTLTRRDDRWEVRFD", "note": "[I28L]", "folding stability dG": 2.06},
      {"variant": "TETRTFDSEEEAKKAQKEAEKQGRTVTMTRRDDRWEVRFD", "note": "[I28M]", "folding stability dG": 1.77},
      {"variant": "TETRTFDSEEEAKKAQKEAEKQGRTVTYTRRDDRWEVRFD", "note": "[I28Y]", "folding stability dG": 0.332},
      {"variant": "TETRTFDSEEEAKKAQKEAEKQGRTVTTTRRDDRWEVRFD", "note": "[I28T]", "folding stability dG": 1.18},
      {"variant": "TETRTFDSEEEAKKAQKEAEKQGRTVTDTRRDDRWEVRFD", "note": "[I28D]", "folding stability dG": -0.146},
      {"variant": "TETRTFDSEEEAKKAQKEAEKQGRTVTRTRRDDRWEVRFD", "note": "[I28R]", "folding stability dG": 1.31},
      {"variant": "TETRTFDSEEEAKKAQKEAEKQGRTVTITRRDDAWEVRFD", "note": "[R34A]", "folding stability dG": 2.81},
      {"variant": "TETRTFDSEEEAKKAQKEAEKQGRTVTITRRDDGWEVRFD", "note": "[R34G]", "folding stability dG": 3.16},
      {"variant": "TETRTFDSEEEAKKAQKEAEKQGRTVTITRRDDFWEVRFD", "note": "[R34F]", "folding stability dG": 3.14},
      {"variant": "TETRTFDSEEEAKKAQKEAEKQGRTVTITRRDDSWEVRFD", "note": "[R34S]", "folding stability dG": 2.76},
      {"variant": "TETRTFDSEEEAKKAQKEAEKQGRTVTITRRDDWWEVRFD", "note": "[R34W]", "folding stability dG": 2.79},
      {"variant": "TETRTFDSEEEAKKAQKEAEKQGRTVTITRRDDMWEVRFD", "note": "[R34M]", "folding stability dG": 3.14},
      {"variant": "TETRTFDSEEEAKKAQKEAEKQGRTVTITRRDDLWEVRFD", "note": "[R34L]", "folding stability dG": 3.13},
      {"variant": "TETRTFDSEEEAKKAQKEAEKQGRTVTITRRDDPWEVRFD", "note": "[R34P]", "folding stability dG": 0.669},
      {"variant": "TETRTFDSEEEAKKAQKEAEKQGRTVTITRRDDYWEVRFD", "note": "[R34Y]", "folding stability dG": 3.18},
      {"variant": "TETRTFDSEEEAKKAQKEAEKQGRTVTITRRDDIWEVRFD", "note": "[R34I]", "folding stability dG": 3.14},
      {"variant": "TETRTFDSEEEAKKAQKEAEKQGRTVTITRRDDVWEVRFD", "note": "[R34V]", "folding stability dG": 3.14},
      {"variant": "TETRTFDSEEEAKKAQKEAEKQGRTVTITRRDDQWEVRFD", "note": "[R34Q]", "folding stability dG": 2.96},
      {"variant": "TETRTFDSEEEAKKAQKEAEKQGRTVTITRRDDDWEVRFD", "note": "[R34D]", "folding stability dG": 2.03},
      {"variant": "TETRTFDSEEEAKKAQKEAEKQGRTVTITRRDDHWEVRFD", "note": "[R34H]", "folding stability dG": 3.13},
      {"variant": "TETRTFDSEEEAKKAQKEAEKQGRTVTITRRDDKWEVRFD", "note": "[R34K]", "folding stability dG": 3.51},
      {"variant": "TETRTFDSEEEAKKAQKEAEKQGRTVTITRRDDNWEVRFD", "note": "[R34N]", "folding stability dG": 2.41},
      {"variant": "TETRTFDSEEEAKKAQKEAEKQGRTVTITRRDDTWEVRFD", "note": "[R34T]", "folding stability dG": 2.7},
      {"variant": "TETRTFDSEEEAKKAQKEAEKQGRTVTITRRDDEWEVRFD", "note": "[R34E]", "folding stability dG": 2.41},
      {"variant": "TETRTFDSEEEAKKAQKEAEKQGRTVTITDRDDRWEVRFD", "note": "[R30D]", "folding stability dG": 0.983},
      {"variant": "TETRTFDSEEEAKKAQKEAEKQGRTVTITSRDDRWEVRFD", "note": "[R30S]", "folding stability dG": 1.94},
      {"variant": "TETRTFDSEEEAKKAQKEAEKQGRTVTITLRDDRWEVRFD", "note": "[R30L]", "folding stability dG": 2.83},
      {"variant": "TETRTFDSEEEAKKAQKEAEKQGRTVTITNRDDRWEVRFD", "note": "[R30N]", "folding stability dG": 2.25},
      {"variant": "TETRTFDSEEEAKKAQKEAEKQGRTVTITWRDDRWEVRFD", "note": "[R30W]", "folding stability dG": 2.68},
      {"variant": "TETRTFDSEEEAKKAQKEAEKQGRTVTITHRDDRWEVRFD", "note": "[R30H]", "folding stability dG": 2.59},
      {"variant": "TETRTFDSEEEAKKAQKEAEKQGRTVTITKRDDRWEVRFD", "note": "[R30K]", "folding stability dG": 3.11},
      {"variant": "TETRTFDSEEEAKKAQKEAEKQGRTVTITGRDDRWEVRFD", "note": "[R30G]", "folding stability dG": 1.71},
      {"variant": "TETRTFDSEEEAKKAQKEAEKQGRTVTITVRDDRWEVRFD", "note": "[R30V]", "folding stability dG": 2.5},
      {"variant": "TETRTFDSEEEAKKAQKEAEKQGRTVTITQRDDRWEVRFD", "note": "[R30Q]", "folding stability dG": 2.81},
      {"variant": "TETRTFDSEEEAKKAQKEAEKQGRTVTITTRDDRWEVRFD", "note": "[R30T]", "folding stability dG": 1.91},
      {"variant": "TETRTFDSEEEAKKAQKEAEKQGRTVTITPRDDRWEVRFD", "note": "[R30P]", "folding stability dG": 2.06},
      {"variant": "TETRTFDSEEEAKKAQKEAEKQGRTVTITFRDDRWEVRFD", "note": "[R30F]", "folding stability dG": 3.33},
      {"variant": "TETRTFDSEEEAKKAQKEAEKQGRTVTITIRDDRWEVRFD", "note": "[R30I]", "folding stability dG": 2.46},
      {"variant": "TETRTFDSEEEAKKAQKEAEKQGRTVTITARDDRWEVRFD", "note": "[R30A]", "folding stability dG": 2.3},
      {"variant": "TETRTFDSEEEAKKAQKEAEKQGRTVTITERDDRWEVRFD", "note": "[R30E]", "folding stability dG": 2.02},
      {"variant": "TETRTFDSEEEAKKAQKEAEKQGRTVTITYRDDRWEVRFD", "note": "[R30Y]", "folding stability dG": 2.83},
      {"variant": "TETRTFDSEEEAKKAQKEAEKQGRTVTITMRDDRWEVRFD", "note": "[R30M]", "folding stability dG": 2.8},
      {"variant": "TETRTFDSEEEAKKAQKEAEKQGRTVTITRRHDRWEVRFD", "note": "[D32H]", "folding stability dG": 2.83},
      {"variant": "TETRTFDSEEEAKKAQKEAEKQGRTVTITRRADRWEVRFD", "note": "[D32A]", "folding stability dG": 2.92},
      {"variant": "TETRTFDSEEEAKKAQKEAEKQGRTVTITRRTDRWEVRFD", "note": "[D32T]", "folding stability dG": 2.06},
      {"variant": "TETRTFDSEEEAKKAQKEAEKQGRTVTITRRVDRWEVRFD", "note": "[D32V]", "folding stability dG": 2.29},
      {"variant": "TETRTFDSEEEAKKAQKEAEKQGRTVTITRRIDRWEVRFD", "note": "[D32I]", "folding stability dG": 2.11},
      {"variant": "TETRTFDSEEEAKKAQKEAEKQGRTVTITRRRDRWEVRFD", "note": "[D32R]", "folding stability dG": 2.48},
      {"variant": "TETRTFDSEEEAKKAQKEAEKQGRTVTITRRYDRWEVRFD", "note": "[D32Y]", "folding stability dG": 2.19},
      {"variant": "TETRTFDSEEEAKKAQKEAEKQGRTVTITRRMDRWEVRFD", "note": "[D32M]", "folding stability dG": 2.61},
      {"variant": "TETRTFDSEEEAKKAQKEAEKQGRTVTITRRPDRWEVRFD", "note": "[D32P]", "folding stability dG": 1.75},
      {"variant": "TETRTFDSEEEAKKAQKEAEKQGRTVTITRRLDRWEVRFD", "note": "[D32L]", "folding stability dG": 2.63}
    ]}
  ]
}
